From the nanobody polyreactivity screen of Harvey et al. (2022)

Assay: yeast display, Sf9 membrane polyspecificity reagent, FACS + sequencing; frameworks hold sequencing errors
Summary of the method: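 Using colony PCR, genes from sorted yeast display clones were amplified, then sequenced on MiSeq at 2 × 250 and filtered by CDR length. The clones had been stained with 10% biotinylated, detergent-solubilized Sf9 membrane reagent for 1 hour at 4 °C and sorted by FACS into low and high (top ~1%) gates on anti-HA and streptavidin fluorescence. Polyreactivity labels come from the gate of origin.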

| Sequence | polyreactivity (PSR sort gate) |
| --- | --- |
| QVQLVESGGGLVQAGGSLRLSCAASGRIFYYNVMGWYRQAPGKERELVADIRSGDRTYYADSVKGRFTISRDNAKNTVYLQMNSLKPEDTAVYYCAADGWYRRGYYYWGQGTQVTVSS | low polyreactivity |
| QVQLVESGGGLVQAGGSLRLSCAASGFTFYYYTMGWYIKAPGKERELVAAITRSGGRTYYADSVKGRFTISRDNAKNTVYLQMNSLKPEDTAVYYCAARTPFYNSYRRDYWGQGTQVTVSS | high polyreactivity |
| QVQLVESGGGLVQAGGSLRLSCAASGSIFATYAMGWYRQAPGKERELVAAISRSGGSTNYADSVKGRFTISRDNAKNTVYLQMNSLKPEDTAVYYCAAVRPHWYGQGWALYWFEYWGQGTQVTVSS | low polyreactivity |
| QVQLVESGGGLVQAGGSLRLSCAASGRIFQDYAMGWYRQATGKERELVAAITWSGGRTYYADSVKGRFTISRDNAKNTVYLQMNSLKPEDTAVYYCNRLTQSRLYYGPREYYYWGQGTQVTVSS | high polyreactivity |
| QVQLVESGGGLVQAGGSLRLSCAASGRTFLNYAMRWNRQAPVKERELVAAITDGDSTNYADSVKGRFTISRDNAKNTVYLQMNSLKPEDTAVYYCNAPSLAYRYYYWGQGTQVTVSS | high polyreactivity |
| QVQLVESGGGLVQAGGSLRLSCAASGSIFYDNAMGWYRQAPGKEREFVAAISTSGGSTYYADSVKGRFTISRDTAKNTVYLQMNSLKPEDTAVYYCAAEWPDLGYWWWYDVGYGYWGQGTQVTVSS | high polyreactivity |
| QVQLVESGGGLVQAGGSLRLSCAASGSTFHTYAMGWYRQAPGKERELVASISYGVTTYYADSVKGRFTISRDNAKNTVYLQMNSLKPEDTAVYYCAREGYKWVYLSYGYWGQGTQVTVSS | low polyreactivity |
| QVQLVESGGGLVQAGGSLRLSCAASGYTFHGNAMGWYRQAPGKERELVAAISRNGGRTYYADSVKGRFTISRDNAKNTVYLQMHSLKPEDTAVYYCNASKFYGVRFKYDYWGQGTQVTVSS | high polyreactivity |
| QVQLVESGGGLVQAGGSLRLSCAASGRTYRQNAMGWYRQAPGKEGELVAAISSSGTNTHYADSVKGRFTISRDNAKNTVYLQMTSLKPEDTAVYYCAADSWGARRKQYHENGYWGQGSQVTVSS | high polyreactivity |
| QVQLVESGGGLVQEGGSLRLSCADSGSTFHYYTMGWYRQAPGKERELVAAISWRGTSTYYADSVKGRFTISRDNAKNTVYLQMNSLKPEDTAVYYCAVRSSPGAGYYYWGQGTQVTVSS | high polyreactivity |
| QVQLVESGGGLVQAGGSLRLSCAASGFIFNAYTMGWYRKAPGKERELFAAISRRGSSTYYADSVKGRFTISRDNAMNTVYLQMNSLKPEDTAVYYCNTRLYARDDSDFDYWGQGPQVTVSS | high polyreactivity |
| QVQLVESGGGLVQAGGSLRLSCAPSGFTFGLYAMGWYRQAPGKERELVAAISWSGGRTYYADSVKGRFTISRDNAKNTVYLQMNSLKPEDTAVYYCAAVNKARSEDYGYWGQGTQVTVSS | high polyreactivity |
| QVQLVESGGGLVQAGGSLRLSCAASGSIFASNAMGWYRQAPGKERELVAAIDDDGSTDYADSVKGRFTISRDNAKNTVYLQMNSLKPEDTAVYYCAVVTFWWGWTKYRGGFYWGQGTQVTVSS | low polyreactivity |
| QVQLVESGGGLVQAGGSLRLSCAASGSTLVIYAMGWSRQAPGKEREFVAAIRWSTGRTYYADSVKGRFTISRDNAKNTVYLQMNSLKPEDTAVYYCNASYWAPNSLPDGFRYDSWGQGTQVTVSS | high polyreactivity |
| HVQIVESGGGLVQAGGSLRLSCAASGRIFVPYVMGWYRQAPGKERELVASISDSDTSTYYADSVKGRFTISRDNAKNTVYLQINSLKPEDTAVYYCNVDNWGQGTQVTVSS | low polyreactivity |
| QVQLVESGGGLVQAGGSLRLSCAASGRIFSRNAMGSYRQAPGKERELVAAITSGGSTYYADYVKGRFTISSDNAKNTVYLQLNSLKPEDTAVYTVKILRYDYWGQGTQVTVSS | high polyreactivity |
| QVQLEESGGGLVQAGGSLRLSCAASGRTFDRYAMGWYRQAPGKERELVAAITWSGGRTYYADSVKGRFTISRDNPKNTVYLQMNSLKPEDTAVYYCATAYYYHGGYYYPYDVDYWGQGTQVTVSS | low polyreactivity |
| QVQLVESGGGLVQAGGSLRLRCAASGSIFNSYAMGWSRQAPGKERELVAAISIRGTRTYYADSVKGRFTISRDNAKNTVYLQMNSLKPEDTAVYYCAADASYTEGMDYWGQGTQVTVSS | high polyreactivity |
| QVQLVESGGGLVQAGGSLRLSCAASGSISDTYGLGWYRQAPGKERELVASITWSSGSTDYADSVKGRFTISRDNAKNTVYLQMNSLKPEDTAVYYCATYEPFYSFFFRGIYDYWGQGTQVTVSS | low polyreactivity |
| QVQLVESGGGLVQAGGSLRLSCAASGRTFHPYAMGWYRQAPGKERELVAVITTSGSSTYYADSVKGRFTISRDNAKNTVYLQMNSLKPEDTAVYYCAALYWRHQAARYYYWGQGTQVTVSS | high polyreactivity |
| QVQLVESGGGLVQAGGSLRLSCAASGRIITTYAMGRYRQAPGKERELVAPITSDGRTYYADSVKVRFTISRDNATHSVYLQMYSMKPEDTAVYYCNAAGRYAFPFGYNYWGQGTQVTVSS | high polyreactivity |
| QVQLVESGGGLVQAGGSLRLSCAASGNTFDSYVMGWYRQAPGKERELVAAISYRGGSTYYADSVKGRFTISRDNAKNTVYLQMNSLKPEDSAVYFCAADYFYYVYSYWYDSWGQGTQVTVSS | high polyreactivity |

| Sequence | polyreactivity (PSR sort gate) |
| --- | --- |
| QVQLVESGGGLVQAGGSLRLSCAASGFTFRRYDMGWYRQAPGKERELVATINRGGSTDYADSVKGRFTISRDNAKNTVYLQMNSLKPEDNAVYYCAADSYSTCADDYWGQGTQVTVSS | high polyreactivity |
| QFQLVDSRGGLVQAGGSLRLSCAASGAIFGGYAMGWYRTAPGKARELVAGSTRSGGSTYYADSVKGRFTISRDNPKNTVYLQMNSLKPEDTAVYYCAVEIQFYRSPRIVRSYDYWGHGTQVTVSS | low polyreactivity |
| QVQLVESGGGLVQAGGSLRLSCAASGFTFNYSAKGWYRQAPGKEREFVAAISRGGGRTYYADSVKGRFTISRDNANNTVYLQMNSLKPEATAVYSCAAQSVPYAYPLASYDYWGQGTQVTVSS | high polyreactivity |
| QVQLVESGGGLVQAGGSLRLSCAASGSIFNLNAMGWYRQAPGTEREFVAGITYSAGRTYYADSVKGRFTISRDNAKNTVYLQMNSLKPVDTAVYYCAARIYSKFTSYGILDSWGQGTQVTVSS | high polyreactivity |
| QVQLVESGGGLVQAGGSLRLSCAASGSIFYTYAMGWYRQAPGKERELVARIDYSTGNTYYADSVKGRFTISRDNAKNTVYLQMNSLKPEDTAVYYCAARDWSSFTGAYDYWGQGTQVTVSS | high polyreactivity |
| QVQLVESGGGLVQAGGSLRLSCAASGLTFSYYAMGWSRQAPGKERELVAAISRGGRTNYADSVKGRFTISRDNAKNTVYLQMNSLKPEDTAVYYCAARFVVQGHSSPYDYWGQGTQVTVSS | high polyreactivity |
| QVQLVESGGGLVQAGGSLRITCAASGSTFYRNAMGWYRQAPGKERELVAALSRGGSTYYADSVKGRFTISRDNAKNTVYLQMNSLKPEDSAVYYCAARYYSYQYGRHTRYQSVYWGQGTQVTVSS | high polyreactivity |
| QVQLVESGGGLVQAGGSLRLSCAASGSTFSSNAMGWYRQAPGKERELVAAISKRGGRTYYADSVKGRFTISRDNAKNTVYLQMNSLKPEDTAVYYCAKDYSSAVDYWGQGTQVTVSS | high polyreactivity |
| PVQLVESGGGLVQAGGSLRLSWAASGRIFVVNAMGWYRQAPGKEREFLASITRGASTYADSVKGRFTISRDNAKNTVYLQMNSLKPEDTAVYYCSDAKRPQVVRYDWTKLEYWGQGTQVTVSS | high polyreactivity |
| HVQLVESGVGLVQAAGSLRLSCAASGLIFRWYAMGWYRQAPVKERELFAAISRGGSTNYADSVKGRFTISRDNAKNTVYLQMNSLKPEDTAVYYCATVYSVRYGGRYYYAFGLYDYWGQGTQVTVSS | high polyreactivity |
| QVQLVESGGGLVQAGGSLRLSCAASGSIFSGNAMGWYRQAPGKERELVAAITTRSGSTYYADSVKGRFTISRDNAKNTVYLQMNSLKPEDTAVYYCAATGYRYRRIYGFDYWGQGTQVTVSS | high polyreactivity |
| QVQLVESGGGLVQAGGSLRLSCAASGRTFGRYAMGWYRQAPGKERELVAAITRGGGSTYYADSVKGRFTISRDNAKNTVYLQMNSLKPEDTAVYYCAARNFRSPYGYDYWGQGTQVTVSS | high polyreactivity |
| QVQLVESGGGLVQAGGSLRLSCAASGSIFAVNAMGWYRQAPGKERELVAAISWRDTGTYYADSVKGRFTISRDNAKNTVYLQMNSLKPEDTAVYYCAADAQVNPYYPDEYWGQGTQVTVSS | low polyreactivity |
| QVQLVESGGGLVQAGGSLRLSCAASGSIFGPYAMGWYRQAPGKEREVVAAINSGGSTNYADSVKGRFTISRDNAKNTVYLQMNSLKPEDTAVYYCNAADERSQGWVGYDHWGQCTQVTVSS | low polyreactivity |
| QVQLVESGGGLVQAGGSLRLSCAASGSIFYRNVMGWYRQAPGKERELVAAISWSGGSTYYADSVKGRFTISRDNAKNTVYLQMNSLKPEDTAVYYCAADIPKTGYPYAFEYWGQGTQVTVSS | low polyreactivity |
| QVQLVESGGGLVQAGGSLRLSCDASGSTFNANAMGWYRQAPWKERVLVAAISWNGGRTYYADSVKGRFTISRDNAKNTVYLQMNSLKPEDTAVYYCALVYTAGRNYYYWGQGTQVTVSS | high polyreactivity |
| QVQLVESGGGLVQAGGSLRLSCAASGNTLDWYAMGGSRQAPGKERELVAAISSAGSTSYADSVKGRFTISRDNAKNTVYLQMNSLKPEDTAVYYCNVDVYSKDANFQSFASEYDYWGQGTQVTVSS | low polyreactivity |
| QVQLVESGGGLVQAGGSLRLSCAASGFTFRWYTMGWYRQAPGKERELVASIRYGGGSTYYADSVKGRFTISRDNAKNTVYLQMNSLNPEDTAVYYCAAESAWTSPYDYWGQGTQVTVSS | high polyreactivity |
| QFQLEESAGGLVQAGGSLRLSCAASGRTFADYAMGWYRPAPGKETELVAAISSGGSTYFAVSVKGRFTISRDNAKNTVYLQMNSLKPEDTAVYYCTARWGYRLGYWGQGTQVTVSS | high polyreactivity |
| QVQLVESGGGLVQAGGSLRLSCAASGSTFYYYAMGWYRQAPGKERELVAAIRLIGGTTYYADSVKGRFTISRDNAKNTVYLQMNSLKPEDTAVYYCNARYSTGYTSPSYWGVYKHYDSWGQGTQVTVSS | low polyreactivity |
| QVQLVESGGGLVQAGGSLRLSCDASGRLFYRNAMGWYRQAPGKDRELVASITSAGRTYYADSVKGRFTISRDNAKNTVYLQMNSLKPEDTAVYYCAVRGYAKSFSNAKYYYWGQGTQVTVSS | low polyreactivity |
